Data as given in the supplement of paper PMC10065799, “High-throughput profiling of sequence recognition by tyrosine kinases and SH2 domains using bacterial peptide display” (eLife, 2023).

What was measured:
[1] = system: AncSZ; test: phosphorylation enrichment, bacterial display (enrichment ratio); higher = better substrate or ligand; peptides without Tyr show the background
[2] = biological target: EPHB1 (UniProt P54762); test: as above
[3] = biological target: EPHB2 (UniProt P29323); test: as above
[4] = biological target: FGFR1 (UniProt P11362); test: as above
FGFR1, sequence (P11362 whole entry, looked up): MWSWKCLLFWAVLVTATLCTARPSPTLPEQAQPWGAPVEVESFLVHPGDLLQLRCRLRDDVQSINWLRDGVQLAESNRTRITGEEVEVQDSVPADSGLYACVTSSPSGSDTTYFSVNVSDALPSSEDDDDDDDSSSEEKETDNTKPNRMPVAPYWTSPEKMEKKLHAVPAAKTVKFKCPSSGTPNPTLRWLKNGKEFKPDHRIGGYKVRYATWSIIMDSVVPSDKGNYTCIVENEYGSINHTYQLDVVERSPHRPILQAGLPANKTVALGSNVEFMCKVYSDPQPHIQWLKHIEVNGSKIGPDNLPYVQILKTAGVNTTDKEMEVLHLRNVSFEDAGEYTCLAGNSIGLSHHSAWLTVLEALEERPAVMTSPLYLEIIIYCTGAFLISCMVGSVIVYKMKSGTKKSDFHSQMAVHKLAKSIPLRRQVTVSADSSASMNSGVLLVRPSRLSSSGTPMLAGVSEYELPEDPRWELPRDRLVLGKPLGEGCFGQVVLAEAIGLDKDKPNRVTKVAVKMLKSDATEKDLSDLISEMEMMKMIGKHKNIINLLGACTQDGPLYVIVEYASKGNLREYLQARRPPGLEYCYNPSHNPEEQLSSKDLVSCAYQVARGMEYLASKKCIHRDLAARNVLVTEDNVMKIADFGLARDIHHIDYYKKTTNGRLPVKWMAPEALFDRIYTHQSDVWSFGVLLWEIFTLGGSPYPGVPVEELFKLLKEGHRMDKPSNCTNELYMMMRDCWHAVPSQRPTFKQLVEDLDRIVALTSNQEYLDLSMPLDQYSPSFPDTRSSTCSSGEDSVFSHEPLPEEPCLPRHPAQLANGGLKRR

[5] = biological target: FGFR3 (UniProt P22607); test: as above
FGFR3, sequence (P22607 whole entry, looked up): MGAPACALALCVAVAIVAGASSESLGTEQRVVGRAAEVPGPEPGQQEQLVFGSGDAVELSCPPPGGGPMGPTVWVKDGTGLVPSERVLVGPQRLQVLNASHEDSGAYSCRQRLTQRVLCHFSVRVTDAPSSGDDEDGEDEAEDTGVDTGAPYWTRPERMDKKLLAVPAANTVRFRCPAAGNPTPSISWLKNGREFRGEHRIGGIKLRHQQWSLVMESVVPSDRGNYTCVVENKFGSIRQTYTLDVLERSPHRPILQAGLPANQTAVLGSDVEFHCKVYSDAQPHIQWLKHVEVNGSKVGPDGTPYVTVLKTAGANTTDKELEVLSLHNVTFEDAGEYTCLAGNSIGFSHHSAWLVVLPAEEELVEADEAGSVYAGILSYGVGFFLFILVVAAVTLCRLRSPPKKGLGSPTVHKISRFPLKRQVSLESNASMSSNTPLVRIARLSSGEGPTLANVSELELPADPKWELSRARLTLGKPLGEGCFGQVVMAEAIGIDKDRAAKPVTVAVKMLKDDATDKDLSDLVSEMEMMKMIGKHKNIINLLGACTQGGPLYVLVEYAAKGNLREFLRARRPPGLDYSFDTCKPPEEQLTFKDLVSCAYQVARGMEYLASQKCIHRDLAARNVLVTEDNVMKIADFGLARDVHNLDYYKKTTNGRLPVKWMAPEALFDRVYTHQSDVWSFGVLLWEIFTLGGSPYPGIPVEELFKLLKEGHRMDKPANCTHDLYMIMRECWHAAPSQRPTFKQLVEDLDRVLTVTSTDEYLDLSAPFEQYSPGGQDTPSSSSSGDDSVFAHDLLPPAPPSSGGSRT

[6] = system: Fer (mouse); test: as above
[7] = biological target: Fes (UniProt P07332); test: as above
Fes, sequence (P07332 whole entry, looked up): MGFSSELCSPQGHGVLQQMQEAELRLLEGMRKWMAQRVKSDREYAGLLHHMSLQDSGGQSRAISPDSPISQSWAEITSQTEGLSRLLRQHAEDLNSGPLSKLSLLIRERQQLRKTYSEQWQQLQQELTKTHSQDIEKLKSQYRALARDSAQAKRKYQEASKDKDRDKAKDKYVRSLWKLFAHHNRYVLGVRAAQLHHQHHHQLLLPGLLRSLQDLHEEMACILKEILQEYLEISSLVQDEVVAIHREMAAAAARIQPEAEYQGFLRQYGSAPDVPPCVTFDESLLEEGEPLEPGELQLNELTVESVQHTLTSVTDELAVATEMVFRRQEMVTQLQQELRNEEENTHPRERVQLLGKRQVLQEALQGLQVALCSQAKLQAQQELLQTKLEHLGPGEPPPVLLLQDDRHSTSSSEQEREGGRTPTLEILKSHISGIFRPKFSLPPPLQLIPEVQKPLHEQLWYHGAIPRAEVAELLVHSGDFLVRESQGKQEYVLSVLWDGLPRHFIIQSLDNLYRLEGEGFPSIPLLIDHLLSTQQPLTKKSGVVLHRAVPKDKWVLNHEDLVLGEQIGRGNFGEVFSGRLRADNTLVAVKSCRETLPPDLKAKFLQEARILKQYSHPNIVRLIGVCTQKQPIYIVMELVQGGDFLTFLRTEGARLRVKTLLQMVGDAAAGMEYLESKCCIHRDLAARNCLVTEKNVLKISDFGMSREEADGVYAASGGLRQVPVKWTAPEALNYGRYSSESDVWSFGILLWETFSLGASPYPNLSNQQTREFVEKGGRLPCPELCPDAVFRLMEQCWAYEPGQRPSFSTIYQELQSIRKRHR

[8] = biological target: Fyn (UniProt P06241); test: as above
Fyn, sequence (P06241 whole entry, looked up): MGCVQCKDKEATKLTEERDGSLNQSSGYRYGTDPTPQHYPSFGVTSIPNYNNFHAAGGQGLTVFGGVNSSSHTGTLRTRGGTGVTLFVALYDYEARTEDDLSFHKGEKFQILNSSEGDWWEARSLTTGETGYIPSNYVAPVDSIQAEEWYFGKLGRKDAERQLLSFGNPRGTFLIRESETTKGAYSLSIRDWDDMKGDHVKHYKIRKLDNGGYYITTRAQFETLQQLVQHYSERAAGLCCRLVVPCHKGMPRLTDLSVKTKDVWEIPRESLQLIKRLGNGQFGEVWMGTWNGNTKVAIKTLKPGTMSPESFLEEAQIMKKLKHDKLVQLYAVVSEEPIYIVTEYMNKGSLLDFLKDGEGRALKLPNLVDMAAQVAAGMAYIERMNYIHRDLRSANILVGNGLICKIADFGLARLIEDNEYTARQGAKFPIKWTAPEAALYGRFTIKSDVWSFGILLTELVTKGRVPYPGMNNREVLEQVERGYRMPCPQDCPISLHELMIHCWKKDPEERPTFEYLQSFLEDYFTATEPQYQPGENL

[9] = biological target: Hck (UniProt P08631); test: as above
Hck, sequence (P08631 whole entry, looked up): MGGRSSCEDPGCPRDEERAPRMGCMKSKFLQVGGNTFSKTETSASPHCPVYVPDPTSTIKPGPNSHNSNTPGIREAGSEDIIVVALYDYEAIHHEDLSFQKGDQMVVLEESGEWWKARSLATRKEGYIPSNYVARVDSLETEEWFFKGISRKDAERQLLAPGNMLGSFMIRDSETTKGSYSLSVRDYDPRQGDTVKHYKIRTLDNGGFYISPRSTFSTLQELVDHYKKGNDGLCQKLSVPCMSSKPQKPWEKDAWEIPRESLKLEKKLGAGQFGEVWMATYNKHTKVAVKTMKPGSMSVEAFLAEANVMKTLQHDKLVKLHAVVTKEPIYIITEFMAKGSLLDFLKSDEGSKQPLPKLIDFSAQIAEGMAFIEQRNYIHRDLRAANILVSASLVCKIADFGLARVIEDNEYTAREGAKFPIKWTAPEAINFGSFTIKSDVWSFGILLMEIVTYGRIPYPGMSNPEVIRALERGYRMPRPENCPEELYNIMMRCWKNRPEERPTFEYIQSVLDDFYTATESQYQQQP

[10] = biological target: Jak2 (UniProt O60674); test: as above
Jak2, sequence (O60674 whole entry, looked up): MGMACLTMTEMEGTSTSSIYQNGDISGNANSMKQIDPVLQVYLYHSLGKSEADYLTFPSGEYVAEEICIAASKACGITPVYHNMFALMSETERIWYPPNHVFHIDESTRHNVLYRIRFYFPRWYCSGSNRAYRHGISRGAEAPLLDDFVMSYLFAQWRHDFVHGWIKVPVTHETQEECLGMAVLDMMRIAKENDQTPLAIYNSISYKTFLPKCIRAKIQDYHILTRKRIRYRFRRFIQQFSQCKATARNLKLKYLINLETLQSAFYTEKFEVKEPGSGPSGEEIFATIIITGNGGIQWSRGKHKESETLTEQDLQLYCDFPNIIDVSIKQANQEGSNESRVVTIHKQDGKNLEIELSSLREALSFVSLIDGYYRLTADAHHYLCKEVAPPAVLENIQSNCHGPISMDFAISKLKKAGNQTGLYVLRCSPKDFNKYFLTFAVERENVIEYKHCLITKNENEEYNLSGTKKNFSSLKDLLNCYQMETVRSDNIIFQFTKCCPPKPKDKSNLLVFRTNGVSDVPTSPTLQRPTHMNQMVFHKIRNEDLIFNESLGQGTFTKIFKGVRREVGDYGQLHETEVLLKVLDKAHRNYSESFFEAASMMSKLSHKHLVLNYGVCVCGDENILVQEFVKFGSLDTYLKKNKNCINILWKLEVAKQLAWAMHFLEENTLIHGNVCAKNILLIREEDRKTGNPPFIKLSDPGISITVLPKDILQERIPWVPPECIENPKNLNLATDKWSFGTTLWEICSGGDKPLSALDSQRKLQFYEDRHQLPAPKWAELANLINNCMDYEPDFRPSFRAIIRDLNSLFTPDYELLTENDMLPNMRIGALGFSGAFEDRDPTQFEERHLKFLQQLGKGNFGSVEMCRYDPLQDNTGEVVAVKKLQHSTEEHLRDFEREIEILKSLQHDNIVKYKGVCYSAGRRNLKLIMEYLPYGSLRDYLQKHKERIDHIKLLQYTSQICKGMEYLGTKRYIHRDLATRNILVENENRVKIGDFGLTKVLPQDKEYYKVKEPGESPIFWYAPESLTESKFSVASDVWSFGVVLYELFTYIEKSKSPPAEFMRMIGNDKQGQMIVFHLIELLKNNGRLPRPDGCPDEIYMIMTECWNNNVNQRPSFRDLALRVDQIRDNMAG

[11] = biological target: MERTK (UniProt Q12866); test: as above
[12] = system: c-Abl (mouse); test: as above
[13] = system: c-Src; test: as above
[14] = biological target: Grb2 SH2 (UniProt P62993); test: SH2 binding enrichment of the phosphorylated peptide, bacterial display (enrichment ratio); higher = better substrate or ligand; peptides without Tyr show the background
[15] = biological target: SHP2-C SH2; test: as above
[16] = biological target: c-Src SH2; test: as above
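Throughout, for SH2 binding enrichment of the phosphorylated peptide, bacterial display: peptide library displayed on the E. coli surface as eCPX fusions, selected cells deep-sequenced, score is each peptide's frequency after selection divided by its frequency in the input.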
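Throughout, for phosphorylation enrichment, bacterial display: 11-residue human phosphosite peptides and single-mutation variants displayed on the E. coli surface, counted by deep sequencing, each peptide's frequency after selection divided by its frequency in the unselected input library; frequency after pTyr selection over input frequency; kinase dosed for 20-30% of maximal phosphorylation in three min.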

Sequence	SH2 binding enrichment [14]	SH2 binding enrichment [15]	SH2 binding enrichment [16]	phosphorylation enrichment [1]	phosphorylation enrichment [2]	phosphorylation enrichment [3]	phosphorylation enrichment [4]	phosphorylation enrichment [5]	phosphorylation enrichment [6]	phosphorylation enrichment [7]	phosphorylation enrichment [8]	phosphorylation enrichment [9]	phosphorylation enrichment [10]	phosphorylation enrichment [11]	phosphorylation enrichment [12]	phosphorylation enrichment [13]
QFLMKYVRSAS [ABCD1_Y337_W339R]	0.517	0.927	0.369	0.995	0.673	0.666	0.431	0.873	0.559	1.05	0.605	0.566	1.2	0.476	0.82	0.799
MSRFIYSTDFF [NTRK1_Y676_D674Y_YF]	1.14	1.05	0.806	0.887	2.29	2.11	1.47	1.27	0.887	1.31	4.15	2.49	1.04	8.57	0.664	4.05
KQVEQYMSFHK [HCN1_Y417]	0.782	0.583	0.524	0.833	0.528	0.555	0.49	0.54	0.413	0.754	1.49	3.62	0.687	0.384	0.691	1.45
DKATEYIQFVR [MAX_Y70_M74V_YF]	0.789	0.73	0.459	0.74	0.503	0.53	0.519	0.551	0.465	0.705	0.442	0.636	0.55	0.41	0.574	0.556
LEIETYPRLLD [KRT12_Y429_R430P]	0.826	0.65	0.498	1.3	0.802	0.953	0.787	1.06	0.646	1.87	0.599	0.41	1.85	0.461	1.1	0.772
GINDDHGQLKN [NBN_Y679_Y679H]	0.817	1.05	0.481	0.757	0.448	0.475	0.471	0.591	0.426	0.763	0.537	0.484	0.591	0.473	0.524	0.382
KILTHYKRPHT [KMT2D_Y5349]	1.76	1.27	1.56	0.495	0.359	0.42	0.456	0.515	0.445	0.621	0.393	0.349	0.439	0.365	0.579	0.379
DRLAVYIDRVS [LMNA_Y45_R50S]	0.807	0.589	0.58	0.881	0.472	0.5	0.463	0.638	0.397	0.953	0.428	0.503	0.725	0.33	0.351	0.311
NFATLHLKIFH [PDE6B_Y219_Y219H_YF]	1.22	1.26	1.04	1.26	0.607	0.74	0.652	0.817	0.565	1.44	0.519	0.492	1.24	0.56	0.918	0.522
WQLEIYRASRP [ERCC4_Y594_R589W]	0.717	0.546	0.599	1.27	0.567	0.628	0.375	0.702	0.471	1.22	0.492	0.491	0.911	0.521	0.997	0.45
QSKGIYYVQLE [MGAT4B_Y262]	0.724	1.71	1.35	1.21	1.12	0.872	3.51	3	0.763	1.42	2.5	2.22	1.47	8.64	1.1	3.33
LLLLFYVVRYC [MPZ_Y177]	1.77	1.53	1.33	0.722	0.359	0.345	0.415	0.436	0.468	0.738	0.463	0.438	0.735	0.54	0.574	0.492
VLDCHYPEDEV [C1QBP_Y188]	1.01	0.929	0.468	1.22	0.589	0.725	0.596	0.88	0.632	1.27	0.464	0.629	1.3	0.556	0.919	0.571
TTANRYLKVSD [MYOM2_Y871]	1.2	0.731	0.643	0.546	0.38	0.432	0.453	0.41	0.484	0.641	0.404	0.607	0.492	0.409	0.526	0.486
PYYASYPPSPD [GDAP2_Y491_T489A]	0.709	0.579	1	1.41	10.8	17.7	4.96	3.53	0.915	1.15	10.7	4.78	1.25	11.2	4.3	7.56
EEDPEYKKKFR [FAM161A_Y278]	1.14	0.904	0.751	1.1	0.427	0.441	0.66	0.544	0.608	0.99	0.61	0.487	1.01	0.466	0.647	0.642
LGQRIYQFIRS [DYRK1B_Y271_Q275R_YF]	1.38	1.07	2.21	1.3	9.19	2.54	1.39	1.21	5.51	1.19	1.86	6.17	0.887	6.97	0.98	2.83
ASYGPYTRVQS [FOXL2_Y258]	0.86	6.64	2.89	0.551	0.415	0.583	0.422	0.427	0.438	0.623	0.673	0.793	0.539	0.376	0.464	0.559
SNNFIYTTLGV [FAM83B_Y639_K640T_YF]	0.936	0.927	0.72	0.899	2.23	1.39	1.22	1.16	2.67	0.885	7.76	7.53	0.666	6.9	1.56	5.65

More lines, main results first:

SH2 binding enrichment [14]	SH2 binding enrichment [15]	SH2 binding enrichment [16]	Sequence	phosphorylation enrichment [1]	phosphorylation enrichment [2]	phosphorylation enrichment [3]	phosphorylation enrichment [4]	phosphorylation enrichment [5]	phosphorylation enrichment [6]	phosphorylation enrichment [7]	phosphorylation enrichment [8]	phosphorylation enrichment [9]	phosphorylation enrichment [10]	phosphorylation enrichment [11]	phosphorylation enrichment [12]	phosphorylation enrichment [13]
0.531	0.598	0.401	PRNLIYFGEHP [TRPV6_Y201_C197R]	1.23	0.631	0.925	0.423	0.912	0.619	1.51	0.738	0.932	1.57	0.448	0.92	1.08
0.782	0.519	1.92	GRRGQYVMPSE [TTC7A_Y396_L399P]	0.586	0.356	0.481	0.433	0.394	0.39	0.557	0.415	0.41	0.323	0.465	0.482	0.41
0.699	0.511	0.685	LVQAEYWHDRI [PPT1_Y185_P189R]	1.16	0.684	0.896	3.27	2.08	0.706	1	0.396	0.605	1.25	0.522	0.868	0.603
0.67	0.582	0.667	KRISCYEASYQ [PFKFB3_Y194]	0.896	0.522	0.484	0.447	0.656	0.494	0.947	0.452	0.529	0.749	0.493	0.74	0.467
0.956	0.683	0.536	HRGSLYLAIEF [TEK_Y899_Y897S_YF]	1.23	0.641	0.491	0.589	0.902	0.748	1.55	0.538	0.48	1.28	0.538	1.19	0.489
1.16	0.811	0.613	NNRVFYGNSDC [RS1_Y177_R182C]	0.954	0.489	0.486	0.467	0.62	0.432	0.863	0.434	0.429	0.862	0.369	0.742	0.381
0.861	0.598	0.892	KNKNRCKNILP [PTPN11_Y279_Y279C]	0.765	0.448	0.503	0.617	0.959	0.488	0.942	0.374	0.481	1.48	0.581	1.37	0.565
1.04	0.738	0.524	LEDDMYRKTCT [XPA_Y257]	2.07	1.15	1.03	1.24	1.67	1.37	2.56	1.78	0.984	1.56	0.848	1.17	0.624
0.746	0.758	0.505	GPSTPYTKSKR [SMARCC2_Y324]	0.408	0.322	0.299	0.363	0.362	0.324	0.511	0.405	0.319	0.497	0.353	0.651	0.452
0.764	0.826	3.14	VNTTLYEKFTY [TEK_Y1108]	0.983	1.92	1.13	0.483	0.648	5.72	0.879	3.69	4.55	0.804	4.25	0.908	3.87
1.34	0.793	0.619	HAVFIYDICHV [TWNK_Y508_V507I_YF]	1.19	3.04	3.98	0.54	0.956	4.14	1.56	3.92	2.59	1.26	3.24	1.89	2.49
0.84	1.54	0.557	LSALDYKIFFF [WDPCP_Y210_YF]	1.5	0.588	0.71	0.753	0.833	0.672	1.05	0.418	0.585	0.991	0.332	0.725	0.717
0.88	0.612	0.514	MSNFACVKREV [SCN1A_Y1694_Y1694C]	0.768	0.49	0.45	0.486	0.592	0.437	0.911	0.449	0.51	0.674	0.383	0.506	0.446
0.66	0.619	0.864	SVVVPYEPTEV [TP53_Y220_P223T]	0.992	0.725	0.765	0.481	0.742	0.709	1.33	0.522	0.506	1.27	0.578	0.885	0.482
